Assay results taken from paper PMC6480404.

Experiments:
[1] = molecular target: SpyCas9;AcrIIA2b (AcrIIA2b.3) (Streptococcus pyogenes;Listeria phage?, UniProt Q99ZW2;PDB:6MCC_3 1-1368;1-130, |); assay: cryo-EM
[2] = molecular target: SpyCas9;AcrIIA2 (AcrIIA2a.1) (Streptococcus pyogenes;Listeria …, UniProt Q99ZW2;PDB:6MCB_3 1-1368;1-123, |); assay: cryo-EM
[3] = molecular target: T1, AcrIIA2 (AcrIIA2a.1) (Listeria monocytogenes phage/prophage, UniProt PDB:6MCB_3 1-123); assay: size-exclusion chromatography
T1 sequence: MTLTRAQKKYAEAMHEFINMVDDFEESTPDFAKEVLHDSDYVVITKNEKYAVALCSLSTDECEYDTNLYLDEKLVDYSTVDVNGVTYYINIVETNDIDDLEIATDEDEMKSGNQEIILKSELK

B1: sgRNA (structured_RNA)
RNA: GGCGCAUAAAGAUGAGACGCGUUUUAGAGCUAUGCUGUUUUGAAAAAAACAGCAUAGCAAGUUAAAAUAAGGCUAGUCCGUUAUCAACUUGAAAAAGUGGCACCGAGUCGGUGCUU
B1: binds [1]; binds [2]; no binding [3].
